The RNAGym collection of RNA variant scans (doi:10.7554/elife.80360)

B1: CPEB3 Ribozyme (parent)
chain: GGGGGCCACAGCAGAAGCGUUCACGUCGCGGCCCCUGUCAGAUUCUGGUGAAUCUGCGAAUUCUGCUGU

Variants of: B1
Assay: self-cleavage, relative activity (ratio to wild type); higher = more cleavage; co-transcriptional

| Variant | self-cleavage |
| --- | --- |
| GGGGGCCACAGCAGAAGCGUUCACAUCGCGGCCCCUGUCAGAUUCUGGUGAACCUGCGAAUUCUGCUGU [G25A U53C] | 0.206 |
| GGGGGCCACAGCAGAAGCGUUCACAUCGCGGCCCCUGUCAGAUUCUGGUGAAGCUGCGAAUUCUGCUGU [G25A U53G] | 0.169 |
| GGGGGCCACAGCAGAAGCGUUCACAUCGCGGCCCCUGUCAGAUUCUGGUGAAACUGCGAAUUCUGCUGU [G25A U53A] | 0.171 |
| GGGGGCCACAGCAGAAGCGUUCACCUCGCGGCCCCUGUCAGAUUCUGGUGAAUCUGCGACUUCUGCUGU [G25C A60C] | 0.149 |
| GGGGGCCACAGCAGAAGCGUUCACCUCGCGGCCCCUGUCAGAUUCUGGUGAAUCUGCGAGUUCUGCUGU [G25C A60G] | 0.207 |
| GGGGGCCACAGCAGAAGCGUUCACAUCGCGGCCCCUGUCAGAUGCUGGUGAAUCUGCGAAUUCUGCUGU [G25A U44G] | 0.11 |
| GGGGGCCACAGCAGAAGCGUUCACAUCGCGGCCCCUGUCAGAUACUGGUGAAUCUGCGAAUUCUGCUGU [G25A U44A] | 0.138 |
| GGGGGCCACAGCAGAAGCGUUCACAUCGCGGCCCCUGUCAGACUCUGGUGAAUCUGCGAAUUCUGCUGU [G25A U43C] | 0.288 |
| GGGGGCCACAGCAGAAGCGUUCACAUCGCGGCCCCUGUCAGAGUCUGGUGAAUCUGCGAAUUCUGCUGU [G25A U43G] | 0.119 |
| GGGGGCCACAGCAGAAGCGUUCACAUCGCGGCCCCUGUCAGAAUCUGGUGAAUCUGCGAAUUCUGCUGU [G25A U43A] | 0.154 |
| GGGGGCCACAGCAGAAGCGUUCACAUCGCGGCCCCUGUCAGAUUCUGGUGAAUCUGCGAAUCCUGCUGU [G25A U62C] | 0.19 |
| GGGGGCCACAGCAGAAGCGUUCACAUCGCGGCCCCUGUCAGAUUCUGGUGAAUCUGCGAAUACUGCUGU [G25A U62A] | 0.187 |
| GGGGGCCACAGCAGAAGCGUUCACAUCGCGGCCCCUGUCAGAUUCUGGUGAAUCUUCGAAUUCUGCUGU [G25A G56U] | 0.2 |
| GGGGGCCACAGCAGAAGCGUUCACAUCGCGGCCCCUGGCAGAUUCUGGUGAAUCUGCGAAUUCUGCUGU [G25A U38G] | 0.153 |
| GGGGGCCACAGCAGAAGCGUUCACAUCGCGGCCCCUGCCAGAUUCUGGUGAAUCUGCGAAUUCUGCUGU [G25A U38C] | 0.123 |
| GGGGGCCACAGCAGAAGCGUUCACAUCGCGGCCCCUGACAGAUUCUGGUGAAUCUGCGAAUUCUGCUGU [G25A U38A] | 0.149 |
| GGGGGCCACAGCAGAAGCGUUCACCUCGCGGCCCCUGUCAGAUUCUGGUGAAUCUGCGAAUUCUGCUGU [G25C] | 0.17 |
| GGGGGCCACAGCAGAAGCGUUCACCUCGCGGCCCCUGUCAGAUUCUGGUGACUCUGCGAAUUCUGCUGU [G25C A52C] | 0.182 |
| GGGGGCCACAGCAGAAGCGUUCACCUCGCGGCCCCUGUCAGAUUCUGGUGAGUCUGCGAAUUCUGCUGU [G25C A52G] | 0.174 |
| GGGGGCCACAGCAGAAGCGUUCACCUCGCGGCCCCUGUCAGAUUCUGGUGAUUCUGCGAAUUCUGCUGU [G25C A52U] | 0.158 |

| Variant | self-cleavage |
| --- | --- |
| GGGGGCCACAGCAGAAGCGUUCACAUCGCGGCCCCUAUCAGAUUCUGGUGAAUCUGCGAAUUCUGCUGU [G25A G37A] | 0.187 |
| GGGGGCCACAGCAGAAGCGUUCACAUCGCGGCCCCUUUCAGAUUCUGGUGAAUCUGCGAAUUCUGCUGU [G25A G37U] | 0.199 |
| GGGGGCCACAGCAGAAGCGUUCACAUCGCGGCCCCUCUCAGAUUCUGGUGAAUCUGCGAAUUCUGCUGU [G25A G37C] | 0.119 |
| GGGGGCCACAGCAGAAGCGUUCACCUCGCGGCCCCUGUCAGAUUCUGGUGAAUCUGCGUAUUCUGCUGU [G25C A59U] | 0.176 |
| GGGGGCCACAGCAGAAGCGUUCACCUCGCGGCCCCUGUCAGAUUCUGGUGAAUCUGCGGAUUCUGCUGU [G25C A59G] | 0.169 |
| GGGGGCCACAGCAGAAGCGUUCACCUCGCGGCCCCUGUCAGAUUCUGGUGAAUCUGCGCAUUCUGCUGU [G25C A59C] | 0.193 |
| GGGGGCCACAGCAGAAGCGUUCACAUCGCGGCCCCUGUCAGAUUCUGUUGAAUCUGCGAAUUCUGCUGU [G25A G48U] | 0.236 |
| GGGGGCCACAGCAGAAGCGUUCACAUCGCGGCCCCUGUCAGAUUCUGAUGAAUCUGCGAAUUCUGCUGU [G25A G48A] | 0.208 |
| GGGGGCCACAGCAGAAGCGUUCACCUCGCGGCCCCUGUCAGUUUCUGGUGAAUCUGCGAAUUCUGCUGU [G25C A42U] | 0.203 |
| GGGGGCCACAGCAGAAGCGUUCACCUCGCGGCCCCUGUCAGCUUCUGGUGAAUCUGCGAAUUCUGCUGU [G25C A42C] | 0.187 |
| GGGGGCCACAGCAGAAGCGUUCACCUCGCGGCCCCUGUCAGGUUCUGGUGAAUCUGCGAAUUCUGCUGU [G25C A42G] | 0.194 |
| GGGGGCCACAGCAGAAGCGUUCACAUCGCGGCCCCUGUCAGAUUCUGGUGAAUCCGCGAAUUCUGCUGU [G25A U55C] | 0.152 |
| GGGGGCCACAGCAGAAGCGUUCACAUCGCGGCCCCUGUCAGAUUCUGGUGAAUCGGCGAAUUCUGCUGU [G25A U55G] | 0.235 |
| GGGGGCCACAGCAGAAGCGUUCACCUCGCGGCCACUGUCAGAUUCUGGUGAAUCUGCGAAUUCUGCUGU [G25C C34A] | 0.197 |
| GGGGGCCACAGCAGAAGCGUUCACAUCGCGGCCCCUGUCAGAUUCUGGUGAAUCUGCGAAUUCUACUGU [G25A G65A] | 0.189 |
| GGGGGCCACAGCAGAAGCGUUCACAUCGCGGCCCCGGUCAGAUUCUGGUGAAUCUGCGAAUUCUGCUGU [G25A U36G] | 0.176 |
| GGGGGCCACAGCAGAAGCGUUCACAUCGCGGCCCCCGUCAGAUUCUGGUGAAUCUGCGAAUUCUGCUGU [G25A U36C] | 0.292 |
| GGGGGCCACAGCAGAAGCGUUCACAUCGCGGCCCCAGUCAGAUUCUGGUGAAUCUGCGAAUUCUGCUGU [G25A U36A] | 0.184 |
| GGGGGCCACAGCAGAAGCGUUCACACCGCGGCCCCUGUCAGAUUCUGGUGAAUCUGCGAAUUCUGCUGU [G25A U26C] | 0.297 |
